Assay results as given in PMC10912661 (Scientific Reports, 2024).

What was measured:
Details in all cases: both partners purified
[1] = target: T1, human hemoglobin (bought powder, gel-filtered, for in vitro assays) (human, UniProt P69905 1-142; P68871 1-147); assay: SPR
[2] = target: T1, human hemoglobin (bought powder, …); assay: SPR; remark: listed apart in the source
[3] = target: human hemoglobin purified from donor blood (carboxyhemoglobin form, for crystallography) (human, UniProt P69905 1-142; P68871 1-147); assay: crystal structure
Chain of human hemoglobin purified from donor blood (carboxyhemoglobin form, for crystallography) (P69905 whole entry, chain 1 of 2): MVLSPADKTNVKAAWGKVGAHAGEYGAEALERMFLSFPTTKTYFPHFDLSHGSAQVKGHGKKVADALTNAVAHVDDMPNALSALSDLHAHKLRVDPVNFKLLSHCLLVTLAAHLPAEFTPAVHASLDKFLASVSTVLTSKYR
Chain of human hemoglobin purified from donor blood (carboxyhemoglobin form, for crystallography) (P68871 whole entry, chain 2 of 2): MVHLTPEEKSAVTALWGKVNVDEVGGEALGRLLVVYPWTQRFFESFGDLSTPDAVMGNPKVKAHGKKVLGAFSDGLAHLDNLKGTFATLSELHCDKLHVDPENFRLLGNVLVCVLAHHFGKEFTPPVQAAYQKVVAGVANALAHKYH

[4] = target: T2, β-chain of human hemoglobin (in the Hb tetramer of the crystal) (human, UniProt P68871 1-147); assay: crystal structure
T2 construct: also called β-chain of Hb; chain ß; source: purified from human blood of a single healthy donor, as part of Hb
T2 sequence (P68871 whole entry): as the sequence (P68871 whole entry, chain 2 of 2) above

T1 sequence (P69905 whole entry, chain 1 of 2): as the sequence (P69905 whole entry, chain 1 of 2) above
T1 sequence (P68871 whole entry, chain 2 of 2): as the sequence (P68871 whole entry, chain 2 of 2) above

B1: hemoglobin-interacting domain 2 (HID2) of Shr, residues 169-294, wild type (domain or fragment)
chain: SGKNTANLSLITKLSQEDGAILFPEIDRYSDNKQIKALTQQITKVTVNGTVYKDLISDSVKDTNGWVSNMTGLHLGTKAFKDGENTIVISSKGFEDVTITVTKKDGQIHFVSAKQKQHVTAEDRQS
notes: also called WT; WT HID2; source: E. coli BL21(DE3), pET28b, purified (Ni-NTA, TEV cleavage, second Ni column, SEC Superdex-75)
For B1, which Kd [1] is on record?
The Kd was 25 µM.

And the Kd [2]?
Its Kd is 22 ± 0.12 µM.

And the koff [2]?
The koff was 0.65 ± 0.025 s⁻¹.

And the kon [2]?
Its kon is 30000 ± 160 M⁻¹ s⁻¹.

What about the “stoichiometry N” value [3] of the same binder?
The value was 3 HID2 per Hb tetramer.

Does B1 bind [4]?
Result: binds
